± gives the standard deviation of the averaged measurements.

For 79 sequences, switch fluorescence ratio results are on record in the supplement of paper PMC10126150.

The data set relates to ATP. Description: switch fluorescence ratio, 500 uM ATP over buffer (Cy3 cluster intensity, sum of 5 cycles each) (fold (ratio)); higher = stronger signal-on switching upon ATP binding; sequences stand for … in TCGTCGGCAGCGTCAGATGTGTATAAGAGACAGTTTTTTTTTTTTTTTTTTTTTTTTT…TC. To be noted: aptamer strand: ATP DNA aptamer (quencher-CACCTGGGGGAGTATTGCGGAGGAAGG + anchor), 100 nM annealed; ATP concentration: 500 uM. In short, it runs like this:
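Cy3-labelled switching-strand clusters on a modified Illumina MiSeq flow-cell were annealed to 100 nM quencher-labelled ATP aptamer and imaged first in selection buffer, then after 15 min with 500 uM ATP at 22 °C. NaOH stripping and re-annealing separated each of five buffer/ATP cycles, and clusters outside 100-1000 RFU were excluded. The fluorescence ratio sums target-cycle Cy3 intensity over buffer-cycle Cy3 intensity per cluster and averages it per switch-domain sequence.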
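Further: ATP exposure 15 min at 22 °C before imaging.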

On to TTGGTGTTGG, for which the switch fluorescence ratio is 1.01 ± 0.044.

With TTGGTTACGT, the switch fluorescence ratio is 1 ± 0.039.

TTGGTTATAC: the switch fluorescence ratio was 1.12 ± 0.046.

Consider TTGGTTCAAG, for which the switch fluorescence ratio is 1.013 ± 0.0027.

For the sequence TTGGTTCCGT, the switch fluorescence ratio came out at 1.01 ± 0.026.

As for TTGGTTCGGA, the switch fluorescence ratio amounted to 0.993 ± 0.015.

Turning to TTGGTTCTGG, the switch fluorescence ratio is 0.962 ± 0.038.

In the case of TTGGTTGAGG, the switch fluorescence ratio is 0.974 ± 0.02.

For TTGGTTGGGT, the switch fluorescence ratio amounted to 0.997 ± 0.041.

Consider TTGGTTGGTG, for which the switch fluorescence ratio was 1.03 ± 0.11.

On to TTGGTTTAAG, for which the switch fluorescence ratio was found to be 1 ± 0.027.

TTGGTTTGCT: the switch fluorescence ratio was determined as 1.005 ± 0.0045.

Consider TTGGTTTGGC, for which the switch fluorescence ratio was determined as 1.01 ± 0.019.

For TTGTAAAATG, the switch fluorescence ratio stood at 0.996 ± 0.013.

In the case of TTGTAATGAG, the switch fluorescence ratio is 1.04 ± 0.065.

For the sequence TTGTAATGGG, the switch fluorescence ratio is 0.988 ± 0.019.

Consider TTGTACGCCC, for which the switch fluorescence ratio came out at 1.24 ± 0.2.

On to TTGTACTTGG, for which the switch fluorescence ratio came to 1.04 ± 0.072.

For TTGTAGAGCT, the switch fluorescence ratio was 0.949 ± 0.017.

For TTGTAGGGAA, the switch fluorescence ratio is 1.03 ± 0.013.

Take TTGTAGGGGA: the switch fluorescence ratio was 1.04 ± 0.06.

As to TTGTAGTTG, the switch fluorescence ratio was found to be 0.9952 ± 0.0062.

TTGTAGTTTG: the switch fluorescence ratio turned out to be 0.977 ± 0.0071.

For TTGTATATTT, the switch fluorescence ratio amounted to 0.982 ± 0.02.

Turning to TTGTATCTTT, the switch fluorescence ratio worked out at 1.03 ± 0.011.

In the case of TTGTATGTAG, the switch fluorescence ratio is 1.02 ± 0.021.

For TTGTATTGGT, the switch fluorescence ratio stood at 1.04 ± 0.11.

With TTGTCACAGG, the switch fluorescence ratio came to 1.09 ± 0.056.

Consider TTGTCACGGG, for which the switch fluorescence ratio amounted to 1.02 ± 0.05.

On to TTGTCAGACT, for which the switch fluorescence ratio came out at 0.9801 ± 0.0028.

With TTGTCATGGG, the switch fluorescence ratio was determined as 0.958 ± 0.011.

Take TTGTCATTGG: the switch fluorescence ratio worked out at 0.992 ± 0.019.

For TTGTCATTTA, the switch fluorescence ratio was found to be 0.992 ± 0.031.

For TTGTCCTAGT, the switch fluorescence ratio came to 1.008 ± 0.0012.

For TTGTCCTCCT, the switch fluorescence ratio came to 1.11 ± 0.11.

As for TTGTCCTGGG, the switch fluorescence ratio stood at 1.02 ± 0.012.

Take TTGTCGGGTG: the switch fluorescence ratio was found to be 1.03 ± 0.089.

On to TTGTCTTTGG, for which the switch fluorescence ratio came out at 1.01 ± 0.041.

TTGTGAAGGC: the switch fluorescence ratio was 1.04 ± 0.015.

As to TTGTGAAGGG, the switch fluorescence ratio is 0.9663 ± 0.0013.

For TTGTGAATTT, the switch fluorescence ratio was determined as 1.28 ± 0.43.

Consider TTGTGACATA, for which the switch fluorescence ratio amounted to 1 ± 0.023.

As for TTGTGAGGCA, the switch fluorescence ratio turned out to be 1.006 ± 0.0066.

For TTGTGCGCAG, the switch fluorescence ratio amounted to 1 ± 0.029.

For the sequence TTGTGCGGGT, the switch fluorescence ratio came to 1.02 ± 0.049.

Regarding TTGTGGCGTT, the switch fluorescence ratio was 0.984 ± 0.0045.

Turning to TTGTGGGAAA, the switch fluorescence ratio is 1.02 ± 0.016.

Consider TTGTGGGAAG, for which the switch fluorescence ratio was 0.976 ± 0.034.

In the case of TTGTGGGGAA, the switch fluorescence ratio is 1.12 ± 0.2.

As to TTGTGGGGAG, the switch fluorescence ratio worked out at 0.97 ± 0.024.

As to TTGTGGGGTT, the switch fluorescence ratio stood at 0.984 ± 0.048.

For the sequence TTGTGGGTAG, the switch fluorescence ratio was found to be 1.02 ± 0.043.

In the case of TTGTGGTGAG, the switch fluorescence ratio was 0.987 ± 0.016.

With TTGTGTGTAG, the switch fluorescence ratio is 1.04 ± 0.033.

Regarding TTGTGTGTTA, the switch fluorescence ratio stood at 0.9687 ± 0.0052.

Consider TTGTGTTGGT, for which the switch fluorescence ratio came out at 0.999 ± 0.041.

On to TTGTGTTTAC, for which the switch fluorescence ratio worked out at 1.07 ± 0.11.

As for TTGTTAATGA, the switch fluorescence ratio is 0.979 ± 0.046.

Turning to TTGTTAATTG, the switch fluorescence ratio turned out to be 1.01 ± 0.041.

On to TTGTTACTCG, for which the switch fluorescence ratio amounted to 0.976 ± 0.048.

For TTGTTAGGGT, the switch fluorescence ratio was found to be 0.958 ± 0.011.

Regarding TTGTTAGGTT, the switch fluorescence ratio was 1.06 ± 0.13.

For TTGTTCCGAT, the switch fluorescence ratio amounted to 1.02 ± 0.032.

In the case of TTGTTCGCTT, the switch fluorescence ratio turned out to be 1.03 ± 0.025.

In the case of TTGTTCTAAC, the switch fluorescence ratio came out at 1.0276 ± 0.00054.

On to TTGTTCTGGG, for which the switch fluorescence ratio came out at 0.972 ± 0.022.

Turning to TTGTTGA, the switch fluorescence ratio amounted to 0.984 ± 0.042.

Turning to TTGTTGCAGC, the switch fluorescence ratio came to 1.02 ± 0.035.

For the sequence TTGTTGCCGT, the switch fluorescence ratio amounted to 0.984 ± 0.065.

With TTGTTGCGTT, the switch fluorescence ratio was 0.986 ± 0.025.

As to TTGTTGGAAT, the switch fluorescence ratio was 1 ± 0.019.

As for TTGTTGGAGG, the switch fluorescence ratio was 0.982 ± 0.025.

Consider TTGTTGGAGT, for which the switch fluorescence ratio is 0.985 ± 0.018.

Consider TTGTTGGGAT, for which the switch fluorescence ratio was 0.996 ± 0.028.

Consider TTGTTGGGG, for which the switch fluorescence ratio amounted to 0.994 ± 0.03.

On to TTGTTGGGGA, for which the switch fluorescence ratio came out at 1 ± 0.019.

Turning to TTGTTGGTCT, the switch fluorescence ratio came to 1.009 ± 0.0075.

As to TTGTTGGTTG, the switch fluorescence ratio amounted to 0.975 ± 0.034.

Regarding TTGTTGTCTT, the switch fluorescence ratio stood at 1.02 ± 0.043.
